Data from patent US20220332804A1 (CSL INNOVATION, published 2022).

Experiments:
Experiment in all cases: SPR, mAb captured, C2 mutant analyte;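 further: Anti-C2 mAbs captured on goat anti-human IgG Biacore CM5 chips, alanine or serine C2 surface mutants flowed over at 37 °C, double-referenced sensorgrams fitted to a 1:1 binding model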
human C2 Q447A = biological target: T1, human C2 Q447A (human, UniProt P06681 21-752)
T1 sequence: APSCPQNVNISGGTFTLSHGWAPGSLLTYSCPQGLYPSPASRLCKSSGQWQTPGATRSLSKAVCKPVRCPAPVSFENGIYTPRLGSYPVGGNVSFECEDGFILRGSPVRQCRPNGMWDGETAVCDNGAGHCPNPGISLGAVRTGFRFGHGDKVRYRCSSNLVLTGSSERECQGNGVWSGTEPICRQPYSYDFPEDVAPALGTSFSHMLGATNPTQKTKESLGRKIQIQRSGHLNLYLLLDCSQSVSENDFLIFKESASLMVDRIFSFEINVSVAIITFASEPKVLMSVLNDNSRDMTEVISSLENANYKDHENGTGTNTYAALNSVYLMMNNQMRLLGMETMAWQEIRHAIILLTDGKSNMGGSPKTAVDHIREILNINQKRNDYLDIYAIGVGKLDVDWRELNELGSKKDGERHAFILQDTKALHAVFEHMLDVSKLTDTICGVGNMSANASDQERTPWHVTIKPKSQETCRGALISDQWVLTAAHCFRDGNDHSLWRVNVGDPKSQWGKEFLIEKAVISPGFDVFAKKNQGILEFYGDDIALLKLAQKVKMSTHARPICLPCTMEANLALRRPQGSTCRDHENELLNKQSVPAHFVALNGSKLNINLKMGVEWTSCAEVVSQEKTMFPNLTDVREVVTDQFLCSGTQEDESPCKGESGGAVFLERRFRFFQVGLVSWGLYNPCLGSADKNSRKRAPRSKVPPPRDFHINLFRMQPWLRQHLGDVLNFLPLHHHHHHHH

human C2 V448A = biological target: T2, human C2 V448A (human, UniProt P06681 21-752)
T2 sequence: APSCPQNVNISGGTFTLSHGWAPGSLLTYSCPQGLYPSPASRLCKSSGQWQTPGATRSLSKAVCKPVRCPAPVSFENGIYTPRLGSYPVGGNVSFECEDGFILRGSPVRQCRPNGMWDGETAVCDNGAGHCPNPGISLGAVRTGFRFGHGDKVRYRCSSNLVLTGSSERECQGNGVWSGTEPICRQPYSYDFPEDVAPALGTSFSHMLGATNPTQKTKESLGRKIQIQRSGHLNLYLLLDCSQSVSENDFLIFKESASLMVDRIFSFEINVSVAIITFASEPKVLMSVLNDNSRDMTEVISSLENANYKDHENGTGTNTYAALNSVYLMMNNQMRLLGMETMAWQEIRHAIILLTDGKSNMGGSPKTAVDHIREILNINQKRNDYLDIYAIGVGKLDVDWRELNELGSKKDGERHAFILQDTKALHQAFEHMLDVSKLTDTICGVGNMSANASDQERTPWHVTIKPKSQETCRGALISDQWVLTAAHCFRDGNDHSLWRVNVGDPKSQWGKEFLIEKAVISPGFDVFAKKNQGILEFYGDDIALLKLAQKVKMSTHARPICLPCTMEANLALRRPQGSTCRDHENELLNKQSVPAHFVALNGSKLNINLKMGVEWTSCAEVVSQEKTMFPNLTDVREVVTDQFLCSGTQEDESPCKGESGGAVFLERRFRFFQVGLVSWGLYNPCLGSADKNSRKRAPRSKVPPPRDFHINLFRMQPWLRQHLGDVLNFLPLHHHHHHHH

human C2 V455A = biological target: T3, human C2 V455A (human, UniProt P06681 21-752)
T3 sequence: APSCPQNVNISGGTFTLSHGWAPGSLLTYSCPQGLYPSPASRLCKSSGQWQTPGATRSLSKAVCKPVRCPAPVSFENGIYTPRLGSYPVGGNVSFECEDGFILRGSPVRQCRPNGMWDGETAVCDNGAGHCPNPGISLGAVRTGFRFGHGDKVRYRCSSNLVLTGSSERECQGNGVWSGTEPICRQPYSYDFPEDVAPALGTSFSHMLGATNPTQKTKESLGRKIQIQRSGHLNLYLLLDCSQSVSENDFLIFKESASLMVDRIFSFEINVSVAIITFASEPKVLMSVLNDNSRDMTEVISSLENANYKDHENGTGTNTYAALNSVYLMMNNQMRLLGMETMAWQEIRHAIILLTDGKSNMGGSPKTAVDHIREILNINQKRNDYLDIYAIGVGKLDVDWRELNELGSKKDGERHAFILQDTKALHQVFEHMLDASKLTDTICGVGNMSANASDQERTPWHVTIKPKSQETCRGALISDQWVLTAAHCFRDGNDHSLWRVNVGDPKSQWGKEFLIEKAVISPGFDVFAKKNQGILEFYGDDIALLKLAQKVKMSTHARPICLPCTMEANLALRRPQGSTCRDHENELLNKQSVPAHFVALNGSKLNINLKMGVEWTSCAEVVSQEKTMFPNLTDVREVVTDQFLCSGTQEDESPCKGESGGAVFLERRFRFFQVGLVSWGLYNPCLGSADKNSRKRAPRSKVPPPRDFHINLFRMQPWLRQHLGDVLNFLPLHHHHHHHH

human C2 G466A = biological target: T4, human C2 G466A (human, UniProt P06681 21-752)
T4 sequence: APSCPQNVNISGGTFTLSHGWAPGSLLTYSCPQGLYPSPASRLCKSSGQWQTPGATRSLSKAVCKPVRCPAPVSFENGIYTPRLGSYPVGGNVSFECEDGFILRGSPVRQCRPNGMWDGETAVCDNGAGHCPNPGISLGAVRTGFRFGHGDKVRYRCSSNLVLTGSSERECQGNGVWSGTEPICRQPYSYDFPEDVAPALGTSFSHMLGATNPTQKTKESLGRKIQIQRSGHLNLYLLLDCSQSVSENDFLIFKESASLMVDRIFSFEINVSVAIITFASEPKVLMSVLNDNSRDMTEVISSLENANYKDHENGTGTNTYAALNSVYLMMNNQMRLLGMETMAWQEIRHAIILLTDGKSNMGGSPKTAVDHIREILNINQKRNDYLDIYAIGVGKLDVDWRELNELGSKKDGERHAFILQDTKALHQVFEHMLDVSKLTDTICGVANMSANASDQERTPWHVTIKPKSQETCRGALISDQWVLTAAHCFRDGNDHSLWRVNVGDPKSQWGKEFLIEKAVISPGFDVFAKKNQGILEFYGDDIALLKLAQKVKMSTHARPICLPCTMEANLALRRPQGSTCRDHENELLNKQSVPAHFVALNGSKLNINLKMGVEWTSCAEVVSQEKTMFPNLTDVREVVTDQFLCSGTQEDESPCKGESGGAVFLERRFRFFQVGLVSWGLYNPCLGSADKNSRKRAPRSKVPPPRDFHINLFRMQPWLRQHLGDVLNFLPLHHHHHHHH

Kd (human C2 Q447A): 133 nM | Kd (human C2 V448A): 6.9 nM | Kd (human C2 V455A): 9.8 nM | Kd (human C2 G466A): 144 nM
B1: RF16-214 (antibody, V domains shown)
VH: EVQLLESGGGLVQPGGSLRLSCAASGFTFSWYQMMWVRQAPGKGLEWVSRIYPSGGGTAYADSVKGRFTISRDNSKNTLYLQMNSLRAEDTAVYYCARDAGYGDNWGQGTLVTVSS
VL: QSALTQPPSVSVSPGQTASITCSGDKLGEKYASWYQQKAGQSPVMVIYQDRKRPSGIPERFSGSNSGNTATLTISGTQAMDEADYYCQAWDTRAVVFGGGTKLTVLG
